Reference: the supplement of paper PMC10567573

B1: ZNF511 (parent)
chain: YEHHYHTLHGNVCSFCKRAFPSGH
B2: PDZK1 (parent)
chain: FQAKKIPIVSSLADPLDTPPDSKE
B3: MYL5 (parent)
chain: DVAGNLDYKALSYVITHGEEKEE

Variants of: B1
Assay: protein stability index of a GFP-peptide fusion (GPS, HEK-293T) (PSI 1-6); higher = more stable
Conditions: c terminus: a fixed tail appended
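Note: lentivirally expressed fusions sorted by FACS into six bins by GFP to DsRed ratio, PSI derived from sequencing read proportions per bin multiplied by bin number.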

Protein stability index of substitutions, site by site:
Y1: K 3.02, C 4.05, I 2.89, H 2.81, G 2.99, A 3.02, L 2.75, E 3, D 3.67, M 2.63, F 2.72

Variants of: B2
Assay: as above
Conditions: c terminus: a fixed tail appended

Protein stability index, by site and new letter:
S11: V 3.38
D14: R 3.81, E 3.65, Q 3.86, M 3.55, V 4.1, K 3.65, L 3.5
D21: R 2.76, G 2.89
D17: A 3.75, L 3.28
T18: F 3.55, G 3.62, A 3.59, K 3.81, E 3.75, C 3.46, W 3.86, V 3.57, S 3.53, I 3.75, N 3.48, R 3.6, D 3.68, M 3.73, Y 3.33, H 3.29
K23: V 3.33, R 3.23, G 3.94
P20: K 3.88, E 4.21, W 2.62, D 4.28, S 3.62, V 3.74, T 3.58, R 3.77, G 4.28, A 4.05, N 3.7, Q 3.73, Y 3.89, F 3.17, H 3.53, I 3.61, C 3.94, M 3.75, L 3.35
P19: R 3.56, E 3.35, C 3.53, K 3.66, Q 4.17, V 3.54, Y 3.81, W 3.19, F 2.9, T 3.85, A 3.43, G 3.91, L 3.2, H 4.01, D 3.87, N 3.88, S 3.67, I 3.55, M 3.72
P15: Y 3.32, D 4.1, S 3.58, G 4.12, R 3.73, C 3.55, Q 3.71, F 3.23, N 3.64, I 3.53, L 2.86, E 3.48, H 3.85, T 3.57, M 3.11, K 3.25, A 3.61, W 2.45, V 3.43
L12: Y 3.75
L16: N 4.27, M 3.79, F 2.89, R 3.77, W 2.99, A 3.85, I 3.91, G 3.85, Y 3.47, E 4.07, K 3.76, S 4.13, V 3.91, C 3.72

Variants of: B3
Assay: as above
Conditions: c terminus: native

Protein stability index, by site and new letter:
K21: E 3.8, W 1.95, F 1.37, D 4.35, H 1.6, G 3.52, P 1.72, A 2.46, Y 1.79, M 1.98, C 2.53, T 2.05, S 1.52, Q 4.06, V 1.54
E22: R 4.24, L 4.25, A 4.23, W 3.59, S 4.46, D 4.71, H 4.65, M 4.25, I 4.14, Y 4.13, G 4.27, C 4.34, V 4.09, F 4.43, P 4.22, K 5.21, Q 4.82, N 4.88
I15: Q 2.17, P 2.16, R 2.73, N 2.63, V 2.59, A 2.1, M 1.82, L 1.89, Y 3.01, G 2.31, C 2.95, F 2.49, K 2.19, T 2.81, H 3.3, D 2.31, E 3.02
T16: Q 2.56, F 3.87, I 2.33, W 2.48, M 1.18, G 3.04, N 3.03, L 1.27, E 1.99, K 2.65, C 1.53, D 2.01, H 2.48, V 2.35, S 1.89
S12: P 2.46, G 2.54, T 3.01, Q 1.7, A 1.72, R 1.99, V 1.73, N 2.77, L 1.77, E 2.13, K 2.3, I 2.45
E23: N 4.99, C 4.24, Q 4.85, A 4.11, L 2.42, G 4.37, H 2.67, D 4.94, V 2.5, T 4.54, K 3.3, F 2.69, S 3.81, Y 3.97, M 2.22, P 2.26
E20: M 1.77, V 1.27, Y 2.61, P 1.3, R 2.46, Q 2.59, A 3.08, N 2.19, C 1.47, K 2.05, S 1.26, F 2.78, I 1.81, D 1.91, T 2.31, H 2.53
E19: F 3.04, M 1.08, L 2.9, D 2.23, T 3.2, N 3.3, I 2.19, K 3.27
L11: S 1.36, V 1.88, M 1.15, E 2.64, K 2.08, Y 2.08, T 2.81, P 2.45, I 1.93, A 2.56, G 2.48, N 2.23, H 2.75, C 2.64
K9: G 1.98, T 2.18, Y 2.3, V 2.67, H 1.53, S 1.56, R 1.35, A 2.29, F 2.23, P 1.95, M 1.6, L 2.75, C 3.09, N 2.01, D 2.57
H17: R 2.25, K 1.79, P 1.83, A 1.39, G 2.4, Q 1.96, S 3.05, L 2.23, T 2.12, E 2.25, N 3.23, D 2.89, M 1.64, C 1.67, W 1.79
A10: L 1.97, T 1.9, M 2.23, W 4.9, G 2.1, R 1.74, K 3.21, H 2, Y 1.22, Q 2, I 2.24, E 2.35, P 2.28, D 2.09, N 2.48, S 2.08
Y8: T 1.42, V 2.62
G18: L 1.69, C 1.68, P 1.12, M 2.07, R 2.43, N 2.11, A 1.45, S 1.49, F 1.88, D 2.61, E 2.1, I 2.42, Q 1.94, H 1.7, T 1.78
Y13: K 2.46, C 2.63, V 1.75, E 2.9, H 2.12, M 2.08, L 2.01, P 3.39, S 2.97, I 2.14, Q 2.33, A 2.7, F 1.8
V14: E 2.51, D 2.97, G 2.28, N 3.53, R 1.31, K 2.5, I 3.02, T 2.14, M 1.24, P 2.48, C 2.07, F 2.25, S 2.31
